In one test the target is T1, hCPZ (Homo sapiens, UniProt Q66K79).
T1 sequence (Q66K79 19-652): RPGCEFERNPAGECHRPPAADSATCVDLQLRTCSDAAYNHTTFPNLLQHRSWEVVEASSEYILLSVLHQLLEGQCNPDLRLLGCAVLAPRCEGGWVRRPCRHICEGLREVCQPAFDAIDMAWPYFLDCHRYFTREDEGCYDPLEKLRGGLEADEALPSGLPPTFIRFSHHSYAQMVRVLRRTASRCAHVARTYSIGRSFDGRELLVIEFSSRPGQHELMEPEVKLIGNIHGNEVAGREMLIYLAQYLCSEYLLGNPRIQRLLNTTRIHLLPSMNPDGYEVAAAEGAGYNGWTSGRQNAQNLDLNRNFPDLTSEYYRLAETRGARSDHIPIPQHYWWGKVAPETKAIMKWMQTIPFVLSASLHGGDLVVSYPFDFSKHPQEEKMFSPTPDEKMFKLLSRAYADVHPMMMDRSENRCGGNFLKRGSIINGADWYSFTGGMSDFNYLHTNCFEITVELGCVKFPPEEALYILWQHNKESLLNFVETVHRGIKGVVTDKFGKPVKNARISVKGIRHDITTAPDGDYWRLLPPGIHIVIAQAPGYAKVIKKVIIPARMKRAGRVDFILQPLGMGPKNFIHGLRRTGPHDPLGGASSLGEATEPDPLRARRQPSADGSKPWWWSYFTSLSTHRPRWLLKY
The test can be described thus: Ki determination, tight-binding inhibition of metallocarboxypeptidase. The conditions noted are these: NI: No inhibitory activity detected for the [I]0 range from 1 nM to 1 mM. In kind it is biochemical. Here is the method: (§1) Inhibitory activities against CPA- and CPB-type forms (bovine and human variants of CPA1, CPA2, CPA4, CPB1, and TAFI) were assayed for all extracts, subject to the experimental conditions that enzyme (E), substrate (S) and inhibitor (I) concentrations as well as the [I]/[E] ratio and preincubation time followed the requirements for tight-binding inhibitor assays. Similar approaches were followed to measure the activities of proteases of different catalytic types, like pepsin, papain, trypsin and subtilisin [45, 46, 47, 48]. All assays were performed in triplicate at 25 °C in a multiplexed manner. For 96-well assays an iEMS spectrophotometer reader/dispenser FM (Labsystems, Finland) was used with a final reaction volume of 250 μL. For cuvette assays, a Cary 400 Bio spectrophotometer (Varian Inc., Palo Alto, CA, USA) spectrophotometer was used with a final reaction volume of 1 ml. The reactions were followed at 5 s intervals for 5 min and recorded as initial velocities. In the protease inhibition assays, mixtures of activity buffer, biological sample and enzyme were preincubated at 25 °C for 10min, before substrate addition. The assay conditions were as follows: for CPA-like enzymes, 7.0nM CPA, 0.1mM AAFP substrate in 20mM Tris-HCl pH 7.5, 500mMNaCl, 1% v/v dimethyl sulfoxide (DMSO), 0.05% w/v BRIJ-35 was used. For CPB-like enzymes, CPB 3.0nM CPB, 0.1mM AAFA substrate and activity buffer of 20 mM Tris-HCl pH [50].
(§2) The Ki values of natural and recombinant NvCI against bCPA1, hCPA1, hCPA2, rat CPA3, hCPA4, hCPB1, bTAFI, hTAFI, hCPD and hCPZ were determined by measuring the enzymatic residual activity (Vi/V0 = a) at different inhibitor concentrations and using a fixed enzyme and substrate concentrations as described above, where vi and v0 are the fraction of enzymatic activity in the presence and absence of inhibitor, respectively, in terms of initial velocities. The determination of Ki values was carried out on equilibrium conditions ([E0]/Ki ≤ 10), using a previously determined preincubation time of 15 min, required to establish enzyme-inhibitor equilibrium. Working temperature was 37 °C. The best estimates of Ki values were obtained by fitting the experimental data to the equation for tight-binding inhibitors by non-linear regression using the GraphPad Prisma 5 software (GraphPad Software, Inc., San Diego, CA, USA) at p < 0.05. The real Ki values against each of these A/B-type MCPs were calculated according to the equation described by Morrison and Copeland [19, 20].

The next test deals with T2, hCPD (Homo sapiens, UniProt O75976).
T2 sequence (O75976 32-1380): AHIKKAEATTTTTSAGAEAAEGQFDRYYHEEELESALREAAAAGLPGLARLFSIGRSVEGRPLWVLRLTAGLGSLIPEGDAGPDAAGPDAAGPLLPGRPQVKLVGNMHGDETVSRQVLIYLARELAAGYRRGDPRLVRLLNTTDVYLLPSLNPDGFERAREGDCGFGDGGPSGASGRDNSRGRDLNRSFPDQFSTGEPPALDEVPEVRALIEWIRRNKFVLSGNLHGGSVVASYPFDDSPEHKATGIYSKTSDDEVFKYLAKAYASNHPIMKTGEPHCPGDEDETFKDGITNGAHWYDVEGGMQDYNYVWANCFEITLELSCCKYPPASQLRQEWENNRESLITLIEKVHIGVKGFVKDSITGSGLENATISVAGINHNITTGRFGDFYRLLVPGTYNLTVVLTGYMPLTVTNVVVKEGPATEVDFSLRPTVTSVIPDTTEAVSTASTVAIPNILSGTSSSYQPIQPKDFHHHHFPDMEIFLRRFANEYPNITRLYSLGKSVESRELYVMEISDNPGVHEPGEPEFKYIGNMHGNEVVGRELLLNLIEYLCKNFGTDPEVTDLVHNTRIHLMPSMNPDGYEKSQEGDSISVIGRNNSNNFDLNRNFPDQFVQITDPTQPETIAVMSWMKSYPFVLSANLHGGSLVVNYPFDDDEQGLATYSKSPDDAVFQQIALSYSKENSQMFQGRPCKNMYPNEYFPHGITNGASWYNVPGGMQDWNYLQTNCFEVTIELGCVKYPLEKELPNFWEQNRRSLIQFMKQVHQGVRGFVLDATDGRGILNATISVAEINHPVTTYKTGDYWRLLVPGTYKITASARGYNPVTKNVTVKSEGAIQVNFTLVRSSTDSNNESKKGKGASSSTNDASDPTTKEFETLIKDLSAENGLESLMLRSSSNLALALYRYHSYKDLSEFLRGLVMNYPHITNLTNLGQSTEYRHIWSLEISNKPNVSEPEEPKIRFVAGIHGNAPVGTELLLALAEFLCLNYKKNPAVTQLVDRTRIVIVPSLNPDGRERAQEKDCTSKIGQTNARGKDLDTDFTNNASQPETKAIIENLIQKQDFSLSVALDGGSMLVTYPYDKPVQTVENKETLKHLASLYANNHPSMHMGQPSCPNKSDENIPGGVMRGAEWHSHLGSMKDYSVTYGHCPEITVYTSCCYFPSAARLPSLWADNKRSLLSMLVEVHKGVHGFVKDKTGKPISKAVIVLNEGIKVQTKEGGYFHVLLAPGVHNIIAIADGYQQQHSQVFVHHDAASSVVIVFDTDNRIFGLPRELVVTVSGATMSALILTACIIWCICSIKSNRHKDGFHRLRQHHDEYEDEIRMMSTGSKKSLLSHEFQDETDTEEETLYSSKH
The description is as above. In kind it is biochemical. As to conditions: NI: No inhibitory activity detected for the [I]0 range from 1 nM to 1 mM. The procedure: as §1, §2

No end group written: not given here. A value given as a limit tells only on which side of the number the result lay.

The Ki is the equilibrium dissociation constant of an inhibitor or competing ligand from its target. The low end stands for tighter binding, the high end for weaker binding. Regarding “NvCI: 53-residue, three-disulphide proteinaceous metallocarboxypeptidase inhibitor from the marine snail Nerita versicolor; major isoform; UniProt P86912 (FHVPDDRPCINPGRCPLVPDATCTFVCKAADNDFGYECQHVWTFEGQRVGCYA; disulfide (positions not given here); also: three disulphides, pairing not given here; UniProt P86912 1-53, looked up)”, the Ki with hCPZ and with hCPD was over 1000 µM in each case.

For the origin of these results see paper PMC6780499, “Characterization, Recombinant Production and Structure-Function Analysis of NvCI, A Picomolar Metallocarboxypeptidase Inhibitor from the Marine Snail Nerita versicolor” (Marine Drugs, 2019).
